From patent US20250388664A1 (BIOARCTIC, published 2025)
Read-outs that look alike come from different tables or passages of the source.

T1: AβpE11-28 monomer (UniProt P05067 682-699, pyroglutamate at position 11 (N-terminal residue))
T1 construct: range 11-28 (Aβ numbering)
T1 peptide (looked up): EVHHQKLVFFAEDVGSNK


What was measured:
AβpE3-40 monomer [1] = target: T2, AβpE3-40 monomer (UniProt P05067 674-711, pyroglutamate at position 3 (N-terminal residue)); experiment: SPR, antibody immobilised, monomer injected, 1:1 fit
T2 construct: range 3-40 (Aβ numbering); Synthetic peptide (Bachem/Anaspec), verified monomeric by SEC; also called monomeric AβpE3-40
T2 sequence (P05067 674-711): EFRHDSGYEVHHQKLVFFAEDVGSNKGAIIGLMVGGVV
Protocol: (§1) Single cycle kinetics with the antibodies immobilized on a CM5 chip was used to measure the binding of the antibodies to the AβpE3-40 monomer. For the measurements, 5 μg/ml of analyte antibody was immobilized on the chip. […] Regeneration of the surface between cycles was done by injecting 30 μl 3 M MgCl₂. The binding data was fitted to a 1:1 interaction model.
(§2) In all SPR experiments, 1×HBS-EP+ (Cytiva, cat. no. BR100669) was used to dilute antibodies and target antigens. Experiments were performed at 25° C.

AβpE3-40 monomer [2] = target: T2, AβpE3-40 monomer; experiment: as above; remark: listed apart in the source
Protocol: as §1, §2
(§3) Affinity evaluation and KD determination by surface plasmon resonance: Binding interactions between antigens and antibodies were evaluated by SPR using a Biacore 8K instrument (Cytiva) according to standard procedures.

Aβ1-28 monomer [3] = target: T3, Aβ1-28 monomer (UniProt P05067 672-699); experiment: inhibition ELISA, antigen titrated in solution, AβpE3-40 coat
T3 construct: range 1-28 (Aβ numbering)
T3 sequence (P05067 672-699): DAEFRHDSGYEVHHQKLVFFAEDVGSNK
Protocol: (§4) The humanized antibodies were incubated at a fixed concentration (0.5 μg/ml) with titrating concentrations of the different Aβ antigens. After incubation for 45 min at 900 rpm to reach equilibrium, the antibody-Aβ samples were added to a blocked and washed ELISA plate with an AβpE3-40 coat (0.5 μM). The samples were incubated on the plate for 25 min without shaking followed by washing, incubation with detection antibody, another washing step and finally incubation with alkaline phosphatase substrate.

Aβ2-28 monomer = target: T4, Aβ2-28 monomer (UniProt P05067 673-699); experiment: as above
T4 construct: range 2-28 (Aβ numbering)
T4 sequence (P05067 673-699): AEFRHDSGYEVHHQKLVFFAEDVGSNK
Protocol: as §4

Aβ3-28 monomer [4] = target: T5, Aβ3-28 monomer (UniProt P05067 674-699); experiment: as above
T5 construct: range 3-28 (Aβ numbering)
T5 sequence (P05067 674-699): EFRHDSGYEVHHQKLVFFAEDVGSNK
Protocol: as §4

AβpE3-28 monomer [5] = target: T6, AβpE3-28 monomer (UniProt P05067 674-699, pyroglutamate at position 3 (N-terminal residue)); experiment: as above
T6 construct: range 3-28 (Aβ numbering)
Protocol: as §4

Aβ4-28 monomer = target: T7, Aβ4-28 monomer (UniProt P05067 675-699); experiment: as above
T7 construct: range 4-28 (Aβ numbering)
T7 sequence (P05067 675-699): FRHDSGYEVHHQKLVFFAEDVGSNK
Protocol: as §4

Aβ5-28 monomer = target: T8, Aβ5-28 monomer (UniProt P05067 676-699); experiment: as above
T8 construct: range 5-28 (Aβ numbering)
T8 sequence (P05067 676-699): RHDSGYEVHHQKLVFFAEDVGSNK
Protocol: as §4

AβpE11-28 monomer = target: T1, AβpE11-28 monomer; experiment: as above
Protocol: as §4

AβpE3-40 monomer [6] = target: T2, AβpE3-40 monomer; experiment: as above
Protocol: as §4, with “concentration (0.1” for “concentration (0.5”

Aβ1-40 monomer [7] = target: T9, Aβ1-40 monomer (UniProt P05067 672-711); experiment: as above
T9 construct: range 1-40 (Aβ numbering)
T9 sequence (P05067 672-711): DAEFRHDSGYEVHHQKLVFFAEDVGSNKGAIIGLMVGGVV
Protocol: as §4, with “concentration (0.1” for “concentration (0.5”

AβpE3-42 protofibrils [8] = target: T10, AβpE3-42 protofibrils (UniProt P05067 674-713, pyroglutamate at position 3 (N-terminal residue)); experiment: as above
T10 construct: range 3-42 (Aβ numbering); Soluble aggregates made from AβpE3-42 peptide, purified in the void peak of SEC; also called AβpE3-42 PF
T10 sequence (P05067 674-713): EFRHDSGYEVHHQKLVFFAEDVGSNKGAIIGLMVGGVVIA
Protocol: as §4, with “concentration (0.1” for “concentration (0.5”

Aβ1-42 protofibrils [9] = target: T11, Aβ1-42 protofibrils (UniProt P05067 672-713); experiment: as above
T11 construct: range 1-42 (Aβ numbering); Soluble aggregates made from Aβ1-42 monomer
T11 sequence (P05067 672-713): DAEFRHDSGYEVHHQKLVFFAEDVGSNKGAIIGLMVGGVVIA
Protocol: as §4, with “concentration (0.1” for “concentration (0.5”

Aβ3-28 monomer [10] = target: T5, Aβ3-28 monomer; experiment: as above; remark: listed apart in the source
Protocol: as §4

AβpE3-28 monomer [11] = target: T6, AβpE3-28 monomer; experiment: as above; remark: listed apart in the source
Protocol: as §4

AβpE3-40 monomer [12] = target: T2, AβpE3-40 monomer; experiment: as above; remark: listed apart in the source
Aβ1-40 monomer [13] = target: T9, Aβ1-40 monomer; experiment: as above; remark: listed apart in the source
AβpE3-42 protofibrils [14] = target: T10, AβpE3-42 protofibrils; experiment: as above; remark: listed apart in the source
Aβ1-42 protofibrils [15] = target: T11, Aβ1-42 protofibrils; experiment: as above; remark: listed apart in the source
AβpE3-42 protofibrils [16] = target: T10, AβpE3-42 protofibrils; experiment: SPR, protofibrils immobilised, antibody injected, 1:1 fit, apparent
Protocol: (§5) Single cycle kinetics was also used to measure binding of the antibodies to AβpE3-42 protofibrils. […] Regeneration of the surface between cycles was done by injecting 30 μl 10 mM glycine-HCl pH 1.7. The binding data was fitted to a 1:1 interaction model.
as §2

AβpE3-42 protofibrils [17] = target: T10, AβpE3-42 protofibrils; experiment: as above; remark: listed apart in the source
Protocol: as §5, §2, §3

AβpE3-42 protofibrils [18] = target: T10, AβpE3-42 protofibrils; experiment: SPR, protofibrils immobilised, antibody injected, 1:1 fit, apparent; Table 10; apparent KD on AβpE3-42 protofibrils
Protocol: as §5, §2

AβpE3-42 protofibrils [19] = target: T10, AβpE3-42 protofibrils; experiment: SPR, protofibrils immobilised, antibody injected, 1:1 fit, apparent; apparent KD on AβpE3-42 protofibrils
Protocol: as §5, §2

Aβ1-28 monomer [20] = target: T3, Aβ1-28 monomer; experiment: inhibition ELISA, antigen titrated in solution, AβpE3-40 coat; remark: listed apart in the source
Protocol: as §4

AβpE3-42 protofibrils [21] = target: T10, AβpE3-42 protofibrils; experiment: SPR, protofibrils immobilised, antibody injected, 1:1 fit, apparent; binding to AβpE3-42 protofibrils; KD in pM
Protocol: as §5, §2, §3

| Kd (AβpE3-40 monomer [1]) | koff (AβpE3-40 monomer [1]) | kon (AβpE3-40 monomer [1]) | Kd (AβpE3-40 monomer [2]) | koff (AβpE3-40 monomer [2]) | kon (AβpE3-40 monomer [2]) | IC50 (Aβ1-28 monomer [3]) | IC50 (Aβ2-28 monomer) | IC50 (Aβ3-28 monomer [4]) | IC50 (AβpE3-28 monomer [5]) | IC50 (Aβ4-28 monomer) | IC50 (Aβ5-28 monomer) | IC50 (AβpE11-28 monomer) | IC50 (AβpE3-40 monomer [6]) | IC50 (Aβ1-40 monomer [7]) | IC50 (AβpE3-42 protofibrils [8]) | IC50 (Aβ1-42 protofibrils [9]) | IC50 (Aβ3-28 monomer [10]) | IC50 (AβpE3-28 monomer [11]) | IC50 (AβpE3-40 monomer [12]) | Binder | also measured |
| --- | --- | --- | --- | --- | --- | --- | --- | --- | --- | --- | --- | --- | --- | --- | --- | --- | --- | --- | --- | --- | --- |
| 2.54 nM | 0.000125 s⁻¹ | 50500 M⁻¹ s⁻¹ | 2.54 nM | 0.000125 s⁻¹ | 50500 M⁻¹ s⁻¹ | > 12500 nM | > 12500 nM | 1870 nM | 5.5 nM | > 12500 nM | > 12500 nM | > 12500 nM | 2.6 nM | > 12500 nM | 2.5 nM | > 500 nM | 2350 nM | 3.6 nM | 2.35 nM | H2L7 (antibody, human IgG1, kappa, V domains shown, Humanized IgG1/kappa, expressed in CHO cells; also called humanized Pyr12.2 variant H2L7; VH2/VL7) VH: EVQLVQSGAEVKKPGASVRLSCKASGYSFTGFTMNWVRQALGQGLEWMGLINPYNGVTTYNQKFKGRLTMTRDMSTRTVYMDLSSLRYEDTAVYYCTREGNWEGVYWGQGTLVTVSS VL: EIVLTQSPLSLSVTLGQSASISCRSSQSLLDSNGKTYLHWFILRPGQSPRRLIYLVSILDSGVPDRFSGSGSGTDFTLKISRVEAEDVGVYYCVQGTHFPFTFGSGTKLEIKR | IC50 (Aβ1-40 monomer [13]): > 500 nM; IC50 (AβpE3-42 protofibrils [14]): 3 nM; IC50 (Aβ1-42 protofibrils [15]): > 132 nM; koff (AβpE3-42 protofibrils [16]): 1.79e-05 s⁻¹; kon (AβpE3-42 protofibrils [16]): 107000 M⁻¹ s⁻¹; koff (AβpE3-42 protofibrils [17]): 1.79e-05 s⁻¹; kon (AβpE3-42 protofibrils [17]): 107000 M⁻¹ s⁻¹; Kd (AβpE3-42 protofibrils [18]): 0.173 nM |
| 2.7 nM | 0.000139 s⁻¹ | 53700 M⁻¹ s⁻¹ | – | – | – | > 12500 nM | > 12500 nM | 1790 nM | 3.5 nM | > 12500 nM | > 12500 nM | > 12500 nM | 2.1 nM | > 12500 nM | 4.9 nM | > 500 nM | – | – | – | H9L8 (antibody, human IgG1, kappa, V domains shown, Humanized IgG1/kappa, expressed in CHO cells; also called humanized Pyr12.2 variant H9L8; VH9/VL8) VH: QVQLVQSGPEVKKPGSSVKVSCKASGYSFTGFTMNWVRQTPGKGLEWIGLINPYNGVTTYNQKFKGRVTITADESTRTAYMELLSLTYEDTAVYYCTREGNWEGVYWGQGTPVTVSA VL: EVVLTQSPLSISVTLGQSASISCRSSQSLLDSNGKTYLHWFILRPGQSPRRLIYLVSILDSGIPDRFSGSGSGTDFTLKISRVEAEDVGVYYCVQGTHFPFTFGGGTKLEIKR | koff (AβpE3-42 protofibrils [16]): 2.05e-05 s⁻¹; kon (AβpE3-42 protofibrils [16]): 44300 M⁻¹ s⁻¹; Kd (AβpE3-42 protofibrils [19]): 0.464 nM |
| – | – | – | 4.14 nM | 0.000233 s⁻¹ | 59000 M⁻¹ s⁻¹ | – | – | – | – | – | – | – | – | – | – | – | 2820 nM | 3 nM | 1.69 nM | H2L7-K12V/R71A (antibody, human IgG1, kappa, VH variant of H2L7; VL and constant domains identical to H2L7) heavy: not shown light: EIVLTQSPLSLSVTLGQSASISCRSSQSLLDSNGKTYLHWFILRPGQSPRRLIYLVSILDSGVPDRFSGSGSGTDFTLKISRVEAEDVGVYYCVQGTHFPFTFGSGTKLEIKRTVAAPSVFIFPPSDEQLKSGTASVVCLLNNFYPREAKVQWKVDNALQSGNSQESVTEQDSKDSTYSLSSTLTLSKADYEKHKVYACEVTHQGLSSPVTKSFNRGEC | IC50 (Aβ1-28 monomer [20]): 10200 nM; IC50 (Aβ1-40 monomer [13]): > 500 nM; IC50 (AβpE3-42 protofibrils [14]): 3.58 nM; IC50 (Aβ1-42 protofibrils [15]): > 132 nM; koff (AβpE3-42 protofibrils [17]): 2.92e-05 s⁻¹; kon (AβpE3-42 protofibrils [17]): 61200 M⁻¹ s⁻¹; Kd (AβpE3-42 protofibrils [21]): 0.477 nM |
